For assay [1], the system named is bclw and β actin mRNA in DRG neurons. Put plainly: Quantitative RT-PCR of mRNA in cell bodies and distal axons. Type of assay: cell-based, rat. As to conditions: vs WT control; normalized to gapdh; 3 independent experiments.
Assay [2] deals with mitochondria in axons of DRG neurons. The assay is described as follows: Mitochondrial transport assay. It is filed as cell-based, rat. To be noted: vs control; ∼115 mitochondria, 10 axons, three experiments.
Assay [3] relates to HA-SFPQ. Put plainly: Coimmunoprecipitation of HA-SFPQ with KLC1/KIF5A constructs in HEK 293T cells. As to conditions: KIF5A^R280H vs WT KIF5A, n = 7, P = 0.0019.
The test system of assay [4] is CB and distal axon compartments of DRG neurons. Put plainly: Western blot of KIF5 and KLC in cell body and distal axon lysates. Type of assay: cell-based, rat. To be noted: Campenot CB vs distal axon lysates. In general terms: Immunoblotting shows a protein as a band on a membrane.
In assay [5] the test system is DRG neurons; DRGs and sciatic nerve of P1 mice. The assay is described as follows: Immunostaining of KIF5s in DRG neurons, DRGs and sciatic nerve. Further details: species or system rat; mouse. As to conditions: microfluidic DRG neurons, DRGs and sciatic nerves in vivo.

B1: KIF5A^R280H: KIF5A mutant associated with CMT2 (protein)
chain: MAETNNECSIKVLCRFRPLNQAEILRGDKFIPIFQGDDSVIIGGKPYVFDRVFPPNTTQEQVYHACAMQIVKDVLAGYNGTIFAYGQTSSGKTHTMEGKLHDPQLMGIIPRIARDIFNHIYSMDENLEFHIKVSYFEIYLDKIRDLLDVTKTNLSVHEDKNRVPFVKGCTERFVSSPEEILDVIDEGKSNRHVAVTNMNEHSSRSHSIFLINIKQENVETEQKLSGKLYLVDLAGSEKVSKTGAEGAVLDEAKNINKSLSALGNVISALAEGTKSYVPYHDSKMTRILQDSLGGNCRTTMFICCSPSSYNDAETKSTLMFGQRAKTIKNTASVNLELTAEQWKKKYEKEKEKTKAQKETIAKLEAELSRWRNGENVPETERLAGEDSALGAELCEETPVNDNSSIVVRIAPEERQKYEEEIRRLYKQLDDKDDEINQQSQLIEKLKQQMLDQEELLVSTRGDNEKVQRELSHLQSENDAAKDEVKEVLQALEELAVNYDQKSQEVEEKSQQNQLLVDELSQKVATMLSLESELQRLQEVSGHQRKRIAEVLNGLMRDLSEFSVIVGNGEIKLPVEISGAIEEEFTVARLYISKIKSEVKSVVKRCRQLENLQVECHRKMEVTGRELSSCQLLISQHEAKIRSLTEYMQTVELKKRHLEESYDSLSDELARLQAHETVHEVALKDKEPDTQDAEEVKKALELQMENHREAHHRQLARLRDEINEKQKTIDELKDLNQKLQLELEKLQADYERLKNEENEKSAKLQELTFLYERHEQSKQDLKGLEETVARELQTLHNLRKLFVQDVTTRVKKSAEMEPEDSGGIHSQKQKISFLENNLEQLTKVHKQLVRDNADLRCELPKLEKRLRATAERVKALEGALKEAKEGAMKDKRRYQQEVDRIKEAVRYKSSGKRGHSAQIAKPVRPGHYPASSPTNPYGTRSPECISYTNNLFQNYQNLHLQAAPSSTSDMYFASSGATSVAPLASYQKANMDNGNATDINDNRSDLPCGYEAEDQAKLFPLHQETAAS
modifications: left off: FLAG, N-terminal, kept
As to B1, in assay [1], the “axonal bclw mRNA level (in words)” value is given as “significantly decreased” and the “axonal β actin mRNA level (in words)” value is “not affected”. Moreover, in assay [2], the “mitochondria transport (in words)” value was “did not alter mitochondria transport”. The “reduction in binding to SFPQ” value in assay [3] is around 50%.

B2: KIF5B: kinesin heavy chain KIF5B (protein, UniProt P33176 2-963, looked up)
Kinesin-1 heavy chain: ADLAECNIKVMCRFRPLNESEVNRGDKYIAKFQGEDTVVIASKPYAFDRVFQSSTSQEQVYNDCAKKIVKDVLEGYNGTIFAYGQTSSGKTHTMEGKLHDPEGMGIIPRIVQDIFNYIYSMDENLEFHIKVSYFEIYLDKIRDLLDVSKTNLSVHEDKNRVPYVKGCTERFVCSPDEVMDTIDEGKSNRHVAVTNMNEHSSRSHSIFLINVKQENTQTEQKLSGKLYLVDLAGSEKVSKTGAEGAVLDEAKNINKSLSALGNVISALAEGSTYVPYRDSKMTRILQDSLGGNCRTTIVICCSPSSYNESETKSTLLFGQRAKTIKNTVCVNVELTAEQWKKKYEKEKEKNKILRNTIQWLENELNRWRNGETVPIDEQFDKEKANLEAFTVDKDITLTNDKPATAIGVIGNFTDAERRKCEEEIAKLYKQLDDKDEEINQQSQLVEKLKTQMLDQEELLASTRRDQDNMQAELNRLQAENDASKEEVKEVLQALEELAVNYDQKSQEVEDKTKEYELLSDELNQKSATLASIDAELQKLKEMTNHQKKRAAEMMASLLKDLAEIGIAVGNNDVKQPEGTGMIDEEFTVARLYISKMKSEVKTMVKRCKQLESTQTESNKKMEENEKELAACQLRISQHEAKIKSLTEYLQNVEQKKRQLEESVDALSEELVQLRAQEKVHEMEKEHLNKVQTANEVKQAVEQQIQSHRETHQKQISSLRDEVEAKAKLITDLQDQNQKMMLEQERLRVEHEKLKATDQEKSRKLHELTVMQDRREQARQDLKGLEETVAKELQTLHNLRKLFVQDLATRVKKSAEIDSDDTGGSAAQKQKISFLENNLEQLTKVHKQLVRDNADLRCELPKLEKRLRATAERVKALESALKEAKENASRDRKRYQQEVDRIKEAVRSKNMARRGHSAQIAKPIRPGQHPAASPTHPSAIRGGGAFVQNSQPVAVRGGGGKQV
Consider B2, for which, in assay [4], the “compartment localization (in words)” value is reported as “preferentially localizes in the CB compartment”. For the same molecule, in assay [5], the “axonal localization of KIF5B by immunostaining (in words)” value is listed as “largely excluded from axons”.

Source of the values: PMC7721913 (The Journal of Cell Biology, 2020).
